Experimental data taken from patent US20230192900A1 (published 2023).

Experiments:
human CD9 = biological target: T1, human CD9 (human, UniProt P21926 2-228); assay: selection on cells expressing full-length CD9; method not described
T1 construct: The cells expressing full-length CD9 that were used to select the antibodies are not described; In the functional assays CD9 stands on human PBMC; also called full-length cell-expressed CD9; Tetraspanin-29
T1 sequence: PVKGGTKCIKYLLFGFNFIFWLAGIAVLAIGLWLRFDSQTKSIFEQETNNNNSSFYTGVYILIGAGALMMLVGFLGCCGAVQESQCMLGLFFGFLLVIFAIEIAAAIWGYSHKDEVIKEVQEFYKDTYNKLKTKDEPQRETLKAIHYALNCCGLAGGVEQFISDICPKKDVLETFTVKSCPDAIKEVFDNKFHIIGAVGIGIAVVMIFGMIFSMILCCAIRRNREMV

[1] = biological target: T2, recombinant human CD9 long extracellular loop 2-human Fc fusion protein (10015-CD, R&D Systems) (human, UniProt P21926 112-195); assay: biolayer interferometry (Octet RED384), CD9 loop 2-human Fc captured on AHC biosensors, Fab at 10 µg/mL
T2 construct: Bought reagent; also called CD9-loop2; long extracellular loop 2 peptide; not shown: human Fc
T2 sequence: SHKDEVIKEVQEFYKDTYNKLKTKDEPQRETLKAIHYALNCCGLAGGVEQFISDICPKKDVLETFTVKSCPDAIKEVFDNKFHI
Excerpt: CD9 contains two extracellular loops: a short extracellular loop (loop 1: 34-55 in SEQ ID NO:2) and a long extracellular loop (loop 2: 112-195 in SEQ ID NO:2). We used biolayer interferometry to assess binding of our panel of CD9 Fab-Y antibodies (selected for their ability to bind full-length cell-expressed CD9) to the long extracellular loop 2 peptide, using the Octet® RED384 System (ForteBio) with Anti-hlgG Fc Capture (AHC) Biosensors (ForteBio) at room temperature. Firstly, an array of 8 sensors was dipped in kinetics buffer (PBS 0.1%, BSA 0.02%, Tween 20) for 120 seconds to provide a baseline signal. Sensors were then moved to wells containing 200 μl of recombinant human CD9 long extracellular loop 2-human Fc fusion protein (10015-CD, R&D Systems®) at 2 μg/mL in kinetics buffer to immobilize the protein to the biosensor (100 seconds), followed by a second baseline step (180 seconds) in kinetics buffer to equilibrate the biosensors now coated with the CD9 long extracellular loop 2-human Fc fusion protein. No detachment of the peptide was observed during this step. Sensors were then dipped in wells containing one of the anti-CD9 Fab (10 μg/mL) to evaluate association of each antibody to CD9-loop2 (120 seconds), followed by dissociation in kinetics buffer (600 seconds). Anti-CD137 Fab-Y (11175) was used as negative control during the antibody association step. […]

binding result (human CD9): binds | binding result [1]: binds
B1: anti-CD9 Fab-Y antibody 7272 (Fab, V domains shown)
VH: QSLEESGGRLVTPGTPLTLTCTVSGFSLSSYAMGWVRQAPGKGLEWIGAIGSITATGYARWAKGRFSISKTSTTVDLKMTSPTTEDTATYFCAREIYVGSAYAFDIWGPGTLVTVSS
VL: AYDMTQTPASVEVAVGDTVTIKCQASQSISNYLAWYQQKPGQPPKLLIYLASTLASGVPSRFKGSGSGTEFTLTISDLECADAATYYCQQGYIDNVNKGFGGGTEVVVK
notes: also called VR7272
